In paper PMC4535357:

Molecular target: T1, SRSF2 (UniProt Q01130 1-221)
T1 sequence: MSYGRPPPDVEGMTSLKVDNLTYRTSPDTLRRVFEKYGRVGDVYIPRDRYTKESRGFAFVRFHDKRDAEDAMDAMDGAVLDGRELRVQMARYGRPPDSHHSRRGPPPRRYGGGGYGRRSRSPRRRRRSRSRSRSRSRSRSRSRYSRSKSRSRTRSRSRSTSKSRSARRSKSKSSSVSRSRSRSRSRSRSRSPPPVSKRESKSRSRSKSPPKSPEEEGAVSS
Experiment: EMSA

GCACGUAUUC (ssRNA) [Mut-SRSF2 RNA (CGUA)]: no binding.
